For series [1], the system named is breast cancer cell lines MCF-7, MDA-MB-231, ZR-75-1. Description: Resazurin cell viability assay in breast cancer cell lines. The following applies: 100 µM MPP+, 100 µmol/L doxorubicin, 72 h. On the procedure:
Resazurin-Assay: To determine cell viability, cells were seeded at a density of 10,000 cells/well in 96-well multiplates. […] Afterward, 100 µL from each well was placed in a cavity of a 96-well plate, and the fluorescence was determined on a microplate reader (TECAN infinite M200, Tecan GmbH, Crailsheim, Germany) at an excitation wavelength of 530 nm and an emission wavelength of 590 nm.
A general note: Resazurin is reduced to fluorescent resorufin, in cell work by metabolically active cells.

In series [2] the target is T1, P-gp (Homo sapiens, UniProt P08183).
T1 construct: expressed in transfected cells; host or cells: MDCKII
Description: Transwell assay, MDCKII cells stably expressing P-gp. The series is classed as cell-based. The following applies: PSC833 10 µmol/L; 100 µmol/L doxorubicin. On the procedure: In brief, MDCKII cells stably expressing P-gp or BCRP were seeded on 0.4 µm Transwell® membrane inserts (200.000 cells/insert; Ø6.5 mm, growth area 0.33 cm2) and allowed to differentiate for five days. The integrity of the monolayer was confirmed by monitoring the trans-epithelial electrical resistance (TEER) using the EVOMX system (WPI, Sarasota, FL, USA). […] Every 30 min, the incubation buffer was removed from the receiver compartment and replaced by a freshly preheated buffer for a total time of 2.5 h.

Substrate in series [3]: COc1cccc2c1C(=O)c1c(O)c3c(c(O)c1C2=O)C[C@@](O)(C(=O)CO)C[C@@H]3O[C@H]1C[C@H](N)[C@H](O)[C@H](C)O1
Substrate in series [4]: COc1cccc2c1C(=O)c1c(O)c3c(c(O)c1C2=O)C[C@@](O)(C(=O)CO)C[C@@H]3O[C@H]1C[C@H](N)[C@H](O)[C@H](C)O1
Description: cells, lysate or membranes. The following applies: other: MDCKII-OCT3; doxorubicin 0–100 µmol/L; 3 min; mean ± SD; 37.0 °C.

Read-outs that look alike come from different tables or passages of the source.

What is called Km is the concentration of substrate that gives half-maximal velocity.

T1 sequence (P08183 whole entry): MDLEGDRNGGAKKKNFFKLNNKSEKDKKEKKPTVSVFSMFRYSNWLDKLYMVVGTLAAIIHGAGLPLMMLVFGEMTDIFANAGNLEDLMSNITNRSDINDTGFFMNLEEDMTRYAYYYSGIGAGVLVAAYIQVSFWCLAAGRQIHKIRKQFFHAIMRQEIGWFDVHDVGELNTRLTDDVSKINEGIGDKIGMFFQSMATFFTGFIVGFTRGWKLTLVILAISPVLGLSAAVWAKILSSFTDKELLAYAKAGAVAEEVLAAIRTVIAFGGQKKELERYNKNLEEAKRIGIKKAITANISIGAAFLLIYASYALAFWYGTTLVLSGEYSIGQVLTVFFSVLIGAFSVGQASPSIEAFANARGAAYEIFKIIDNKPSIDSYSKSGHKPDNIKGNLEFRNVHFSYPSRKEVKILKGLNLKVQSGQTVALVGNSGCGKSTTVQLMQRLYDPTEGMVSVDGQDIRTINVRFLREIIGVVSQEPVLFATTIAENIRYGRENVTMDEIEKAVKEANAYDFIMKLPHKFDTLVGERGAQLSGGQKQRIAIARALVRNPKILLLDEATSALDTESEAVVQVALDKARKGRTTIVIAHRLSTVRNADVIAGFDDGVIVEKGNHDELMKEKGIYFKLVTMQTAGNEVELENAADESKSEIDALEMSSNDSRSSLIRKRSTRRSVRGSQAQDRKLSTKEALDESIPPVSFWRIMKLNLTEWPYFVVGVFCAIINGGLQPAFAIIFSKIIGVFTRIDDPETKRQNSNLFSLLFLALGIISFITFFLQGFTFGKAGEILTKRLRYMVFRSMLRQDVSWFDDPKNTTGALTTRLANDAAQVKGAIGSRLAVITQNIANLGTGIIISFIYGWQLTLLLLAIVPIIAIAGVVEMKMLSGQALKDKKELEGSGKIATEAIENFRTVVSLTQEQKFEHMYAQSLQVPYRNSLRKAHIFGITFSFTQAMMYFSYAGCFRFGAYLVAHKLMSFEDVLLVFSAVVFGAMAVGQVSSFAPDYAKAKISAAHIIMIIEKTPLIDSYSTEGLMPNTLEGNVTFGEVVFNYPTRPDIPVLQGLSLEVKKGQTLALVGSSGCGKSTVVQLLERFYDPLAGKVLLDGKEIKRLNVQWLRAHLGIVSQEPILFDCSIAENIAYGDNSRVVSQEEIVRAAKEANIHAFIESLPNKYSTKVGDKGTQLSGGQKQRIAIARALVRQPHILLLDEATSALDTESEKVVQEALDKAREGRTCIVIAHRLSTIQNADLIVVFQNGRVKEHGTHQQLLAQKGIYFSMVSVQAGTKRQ

`C[n+]1ccc(-c2ccccc2)cc1` [MPP+]: the “effect of inhibitor on cytotoxic effects of doxorubicin” value in series [1] is recorded as “significantly attenuated”. For `C/C=C/C[C@@H](C)C(=O)[C@H]1C(=O)N[C@@H](C(C)C)C(=O)N(C)CC(=O)N(C)[C@@H](CC(C)C)C(=O)N[C@@H](C(C)C)C(=O)N(C)[C@@H](CC(C)C)C(=O)N[C@@H](C)C(=O)N[C@H](C)C(=O)N(C)[C@@H](CC(C)C)C(=O)N(C)[C@@H](CC(C)C)C(=O)N(C)[C@@H](C(C)C)C(=O)N1C` [PSC833], in series [2], the “effect of inhibitor on P-gp-mediated vectorial transport of doxorubicin” value is “markedly reduced”.

B1: OCT1 (Homo sapiens) (protein)
chain: MPTVDDILEQVGESGWFQKQAFLILCLLSAAFAPICVGIVFLGFTPDHHCQSPGVAELSQRCGWSPAEELNYTVPGLGPAGEAFLGQCRRYEVDWNQSALSCVDPLASLATNRSHLPLGPCQDGWVYDTPGSSIVTEFNLVCADSWKLDLFQSCLNAGFLFGSLGVGYFADRFGRKLCLLGTVLVNAVSGVLMAFSPNYMSMLLFRLLQGLVSKGNWMAGYTLITEFVGSGSRRTVAIMYQMAFTVGLVALTGLAYALPHWRWLQLAVSLPTFLFLLYYWCVPESPRWLLSQKRNTEAIKIMDHIAQKNGKLPPADLKMLSLEEDVTEKLSPSFADLFRTPRLRKRTFILMYLWFTDSVLYQGLILHMGATSGNLYLDFLYSALVEIPGAFIALITIDRVGRIYPMAMSNLLAGAACLVMIFISPDLHWLNIIIMCVGRMGITIAIQMICLVNAELYPTFVRNLGVMVCSSLCDIGGIITPFIVFRLREVWQALPLILFAVLGLLAAGVTLLLPETKGVALPETMKDAENLGRKAKPKENTIYLKVQTSEPSGT
Regarding B1, in series [3], the Km amounted to 4.66 ± 3.43 µM.

B2: OCT3 (Homo sapiens) (protein)
chain: MPSFDEALQRVGEFGRFQRRVFLLLCLTGVTFAFLFVGVVFLGTQPDHYWCRGPSAAALAERCGWSPEEEWNRTAPASRGPEPPERRGRCQRYLLEAANDSASATSALSCADPLAAFPNRSAPLVPCRGGWRYAQAHSTIVSEFDLVCVNAWMLDLTQAILNLGFLTGAFTLGYAADRYGRIVIYLLSCLGVGVTGVVVAFAPNFPVFVIFRFLQGVFGKGTWMTCYVIVTEIVGSKQRRIVGIVIQMFFTLGIIILPGIAYFIPNWQGIQLAITLPSFLFLLYYWVVPESPRWLITRKKGDKALQILRRIAKCNGKYLSSNYSEITVTDEEVSNPSFLDLVRTPQMRKCTLILMFAWFTSAVVYQGLVMRLGIIGGNLYIDFFISGVVELPGALLILLTIERLGRRLPFAASNIVAGVACLVTAFLPEGIAWLRTTVATLGRLGITMAFEIVYLVNSELYPTTLRNFGVSLCSGLCDFGGIIAPFLLFRLAAVWLELPLIIFGILASICGGLVMLLPETKGIALPETVDDVEKLGSPHSCKCGRNKKTPVSRSHL
With B2, in series [4], the Km amounted to 13.0 ± 10.7 µM.

B3: OCT2 (Homo sapiens) (protein)
chain: MPTTVDDVLEHGGEFHFFQKQMFFLLALLSATFAPIYVGIVFLGFTPDHRCRSPGVAELSLRCGWSPAEELNYTVPGPGPAGEASPRQCRRYEVDWNQSTFDCVDPLASLDTNRSRLPLGPCRDGWVYETPGSSIVTEFNLVCANSWMLDLFQSSVNVGFFIGSMSIGYIADRFGRKLCLLTTVLINAAAGVLMAISPTYTWMLIFRLIQGLVSKAGWLIGYILITEFVGRRYRRTVGIFYQVAYTVGLLVLAGVAYALPHWRWLQFTVSLPNFFFLLYYWCIPESPRWLISQNKNAEAMRIIKHIAKKNGKSLPASLQRLRLEEETGKKLNPSFLDLVRTPQIRKHTMILMYNWFTSSVLYQGLIMHMGLAGDNIYLDFFYSALVEFPAAFMIILTIDRIGRRYPWAASNMVAGAACLASVFIPGDLQWLKIIISCLGRMGITMAYEIVCLVNAELYPTFIRNLGVHICSSMCDIGGIITPFLVYRLTNIWLELPLMVFGVLGLVAGGLVLLLPETKGKALPETIEEAENMQRPRKNKEKMIYLQVQKLDIPLN
For the molecule B3, the Km in series [3] turned out to be 76.1 ± 42.8 µM.

The record behind these values is article PMC8745601 (International Journal of Molecular Sciences, 2021).
